Eight substances from publication PMC4086636 can be followed below.

This test has as its target domain 4 of the anthrax protective antigen (Bacillus anthracis) (UniProt P13423). Kind of test: cross-linking.

M18 scFv with L-DOPA at position H_D54 yielded an Experimental Crosslinking (%) of 30.4%.
The result for M18 scFv with L-DOPA at position H_D56 reads 36.2%; that for M18 scFv with L-DOPA at position H_G53, 40.3%; that for M18 scFv with L-DOPA at position H_G55, 5.1%.
M18 scFv with L-DOPA at position H_N58: the Experimental Crosslinking (%) stood at 24.4%.
The result for M18 scFv with L-DOPA at position H_S31 reads 51.9%; that for M18 scFv with L-DOPA at position H_W33, 13.9%; that for M18 scFv with L-DOPA at position H_Y52, 19.7%.
